2 substances from US20200000929A1 can be followed below.

In this assay the target is NPY2 receptor on HEK293/hNPY2R cells (human) (UniProt P49146). The experiment in a line: cell-based or functional assay.
Sequence of NPY2 receptor on HEK293/hNPY2R cells (human) (P49146 whole entry): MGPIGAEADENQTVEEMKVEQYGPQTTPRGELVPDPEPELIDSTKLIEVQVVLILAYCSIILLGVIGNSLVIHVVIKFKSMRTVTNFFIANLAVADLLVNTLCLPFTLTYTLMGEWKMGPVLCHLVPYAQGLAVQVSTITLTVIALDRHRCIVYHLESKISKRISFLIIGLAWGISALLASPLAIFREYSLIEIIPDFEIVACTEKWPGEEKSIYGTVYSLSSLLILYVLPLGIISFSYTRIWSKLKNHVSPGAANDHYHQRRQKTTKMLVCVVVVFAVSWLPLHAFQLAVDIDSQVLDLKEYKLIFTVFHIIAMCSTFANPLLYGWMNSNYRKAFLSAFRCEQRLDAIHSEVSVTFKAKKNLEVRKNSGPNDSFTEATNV

Sequence of PYY(3-36) wild-type (peptide; modification not given) (chain, as listed by the source): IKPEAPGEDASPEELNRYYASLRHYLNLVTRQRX

With “moPYY, Y2receptor specific modified analog of PYY(3-36): Ac-Ile-Lys-Pqa-Arg-His-Tyr-Leu-Asn-Trp-Val-Thr-Arg-Gln-(NMe)-Arg-Tyr-NH2 (peptide)”, the EC50 [nM], day 1, cAMP assay (inhibition of Forskolin stimulated cAMP accumulation in HEK293/hNPY2R cells) is 0.14 nM and the EC50 [nM], day2, cAMP assay (inhibition of Forskolin stimulated cAMP accumulation in HEK293/hNPY2R cells) came to 0.15 nM.

“PYY(3-36) wild-type (peptide; modification not given)” returned an EC50 [nM], day 1, cAMP assay (inhibition of Forskolin stimulated cAMP accumulation in HEK293/hNPY2R cells) of 0.09 nM and an EC50 [nM], day2, cAMP assay (inhibition of Forskolin stimulated cAMP accumulation in HEK293/hNPY2R cells) of 0.1 nM.
